Substitutions are numbered along the chain they refer to. In names and notes the source's numbering stands. Blank lines part the entries; values can stand above or below the binder they belong to.
Tests used:
TGF-β1 [1] = target: T1, TGF-β1 (UniProt P01137 279-390); experiment: cell-based or functional assay
TGF-β1 [2] = target: T1, TGF-β1; experiment: cell-based or functional assay; remark: listed apart in the source
PD-1 Fc fusion protein = target: T2, PD-1 Fc fusion protein (UniProt Q15116 25-167, limits assumed); experiment: SPR (Biacore), PD-1-Fc antigen on CM5, 1:1 Langmuir with mass transfer
T2 construct: also called PD-1-Fc antigen; PD-1 fused to human Fc region; not shown: human Fc region
Description: PD-1-Fc antigen and reference antigen was immobilized on Biacore CM5 surface. […] Kinetics data was evaluated for 1:1 model: Langmuir with mass transfer.

TGF-β1 [3] = target: T1, TGF-β1; experiment: SPR (Biacore 3000), fusion protein immobilized on CM5, TGF-β injected
Description: (§1) Surface plasma resonance (SPR) analysis was performed using Biacore3000, CM5 chip, an amine-coupling kit, 10×HBS-P running buffer and Glycine for regeneration (GE Healthcare). […] Dissociation was allowed to proceed followed by a pulse of 10 mM Glycine (pH 1.5) for regeneration of the chip surface.

TGF-β2 = target: T3, TGF-β2 (UniProt P61812 303-414); experiment: as above
T3 sequence (looked up): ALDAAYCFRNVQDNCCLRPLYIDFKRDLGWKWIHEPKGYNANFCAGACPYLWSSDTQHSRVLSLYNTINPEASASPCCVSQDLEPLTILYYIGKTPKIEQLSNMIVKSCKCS
Description: as §1

TGF-β3 = target: T4, TGF-β3 (UniProt P10600 301-412); experiment: as above
T4 sequence (looked up): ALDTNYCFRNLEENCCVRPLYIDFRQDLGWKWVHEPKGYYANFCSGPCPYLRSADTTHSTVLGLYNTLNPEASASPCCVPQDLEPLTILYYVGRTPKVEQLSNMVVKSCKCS
Description: as §1

T1 sequence (P01137 279-390 limits assumed): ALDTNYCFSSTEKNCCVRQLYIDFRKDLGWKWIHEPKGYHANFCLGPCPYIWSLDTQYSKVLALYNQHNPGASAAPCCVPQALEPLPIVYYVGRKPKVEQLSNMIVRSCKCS
T2 sequence (Q15116 25-167 limits assumed): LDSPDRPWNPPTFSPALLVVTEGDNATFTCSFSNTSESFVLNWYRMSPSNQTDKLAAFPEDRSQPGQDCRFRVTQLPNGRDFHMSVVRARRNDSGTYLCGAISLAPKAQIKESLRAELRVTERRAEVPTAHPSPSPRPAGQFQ

B1: Anti-PD-1 (VL5-VH6).IgG4 (antibody, V domains shown)
VH: QVQLVESGGGVVQPGRSLRLDCKASGITFSNSGMHWVRQAPGKGLEWVAVIWYDGSKRYYADSVKGRFTISRDNSKNTLFLQMNSLRAEDTAVYYCATNDDYWGQGTLVTVSS
VL: EIVLTQSPATLSLSPGERATLSCRASQSVSSYLAWYQQKPGQAPRLLIYDASNRATGIPARFSGSGSGTDFTLTISSLEPEDFAVYYCQQSSNWPRTFGQGTKVEIK
- IC50-inhibition of TGF-β1 induced reporter gene activity (HEK-Blue TGF-β cells, SEAP) (TGF-β1 [1]): 9 pM

B2: Anti-PD-1 (VL5-VH6).IgG4-Linker7 -TGFbRII (other)
heavy (part 1 of 2): B1 VH
heavy (part 2 of 2): DPGSGSVPLGSGSNPGSIPPHVQKSVNNDMIVTDNNGAVKFPQLCKFCDVRFSTCDNQKSCMSNCSITSICEKPQEVCVAVWRKNDENITLETVCHDPKLPYHDFILEDAASPKCIMKEKKKPGETFFMCSCSSDECNDNIIFSEEYNTSNPD
VL: B1 VL
- IC50, TGF-β1 neutralization activity (HEK-Blue TGF-β reporter cells) (TGF-β1 [2]): 1.1 pM

B3: Anti-PD-1 (nVL1-nVH3).IgG4-TGFbRII (other)
heavy (part 1 of 2): B1 VH with D100N
heavy (part 2 of 2): GGGGSGGGGSIPPHVQKSVNNDMIVTDNNGAVKFPQLCKFCDVRFSTCDNQKSCMSNCSITSICEKPQEVCVAVWRKNDENITLETVCHDPKLPYHDFILEDAASPKCIMKEKKKPGETFFMCSCSSDECNDNIIFSEEYNTSNPD
VL: B1 VL with L4M, S91Y, S92N
- IC50-inhibition of TGF-β1 induced reporter gene activity (HEK-Blue TGF-β cells, SEAP) (TGF-β1 [1]): 10.7 pM

B4: Anti-PD-1 (VL5-VH6).IgG4-Linker10 -TGFbRII (other)
heavy (part 1 of 2): B1 VH
heavy (part 2 of 2): DPGVLEREDVPTTSYPNPGSIPPHVQKSVNNDMIVTDNNGAVKFPQLCKFCDVRFSTCDNQKSCMSNCSITSICEKPQEVCVAVWRKNDENITLETVCHDPKLPYHDFILEDAASPKCIMKEKKKPGETFFMCSCSSDECNDNIIFSEEYNTSNPD
VL: B1 VL
- IC50, TGF-β1 neutralization activity (HEK-Blue TGF-β reporter cells) (TGF-β1 [2]): 1.9 pM

B5: Anti-PD-1 (VL5-VH6).IgG4-Linker12 -TGFbRII (other)
heavy (part 1 of 2): B1 VH
heavy (part 2 of 2): DPVLEREDKVTTSKNPGSIPPHVQKSVNNDMIVTDNNGAVKFPQLCKFCDVRFSTCDNQKSCMSNCSITSICEKPQEVCVAVWRKNDENITLETVCHDPKLPYHDFILEDAASPKCIMKEKKKPGETFFMCSCSSDECNDNIIFSEEYNTSNPD
VL: B1 VL
- IC50, TGF-β1 neutralization activity (HEK-Blue TGF-β reporter cells) (TGF-β1 [2]): 2.7 pM

B6: Anti-PD-1 (VL5-VH6).IgG4-Linker 2 -TGFbRII (other)
heavy (part 1 of 2): B1 VH
heavy (part 2 of 2): GGGGSGGGSIPPHVQKSVNNDMIVTDNNGAVKFPQLCKFCDVRFSTCDNQKSCMSNCSITSICEKPQEVCVAVWRKNDENITLETVCHDPKLPYHDFILEDAASPKCIMKEKKKPGETFFMCSCSSDECNDNIIFSEEYNTSNPD
VL: B1 VL
- IC50, TGF-β1 neutralization activity (HEK-Blue TGF-β reporter cells) (TGF-β1 [2]): 1.2 pM

B7: Anti-PD-1 (VL5-VH6).IgG4-Linker8 -TGFbRII (other)
heavy (part 1 of 2): B1 VH
heavy (part 2 of 2): DPGSGGSVPLGSGGSNPGSIPPHVQKSVNNDMIVTDNNGAVKFPQLCKFCDVRFSTCDNQKSCMSNCSITSICEKPQEVCVAVWRKNDENITLETVCHDPKLPYHDFILEDAASPKCIMKEKKKPGETFFMCSCSSDECNDNIIFSEEYNTSNPD
VL: B1 VL
- IC50, TGF-β1 neutralization activity (HEK-Blue TGF-β reporter cells) (TGF-β1 [2]): 1.2 pM

B9: Anti-PD-1 (nVL1-nVH3).IgG4 (antibody, V domains shown)
VH: B1 VH with D100N
VL: B1 VL with L4M, S91Y, S92N
notes: IgG4
- Kd (PD-1 Fc fusion protein): 14.8 pM

Continued, values first:

- IC50-inhibition of TGF-β1 induced reporter gene activity (HEK-Blue TGF-β cells, SEAP) (TGF-β1 [1]): 15.1 pM
B8: Anti-PD-1 (nVL1-nVH7).IgG4-TGFbRII (other)
heavy (part 1 of 2): B1 VH with I27F, D100N
heavy (part 2 of 2): B3 heavy (part 2 of 2)
VL: B1 VL with L4M, S91Y, S92N

- Kd (PD-1 Fc fusion protein): 14.1 pM
B10: Anti-PD-1 (nVL1-nVH3).IgG4(S108P) (antibody, V domains shown)
VH: B1 VH with D100N
VL: B1 VL with L4M, S91Y, S92N
notes: IgG4 with S108P

- IC50-inhibition of TGF-β1 induced reporter gene activity (HEK-Blue TGF-β cells, SEAP) (TGF-β1 [1]): 54.5 pM
B11: Anti-PD-1 (nVL1-nVH8).IgG4-TGFbRII (other)
heavy (part 1 of 2): EVQLVQSGGGVVQPGRSLRLSCAASGFTFSSYGMHWVRQAPGKGLEWVAVIWYDGSNKYYADSVKGRFTISRDNSKNTLYLQMNSLRAEDTAVYYCATNNDYWGQGTLVTVSS
heavy (part 2 of 2): B3 heavy (part 2 of 2)
VL: B1 VL with L4M, S91Y, S92N

- IC50-inhibition of TGF-β1 induced reporter gene activity (HEK-Blue TGF-β cells, SEAP) (TGF-β1 [1]): 5.6 pM
B12: Anti-PD-1(VH7-VL6) IgG4-TGFβRII (other)
heavy: QVQLVQSGVEVKKPGASVKVSCKASGYTFTNYYMYWVRQAPGQGLEWMGGINPSNGGTNFNEKFKNRVTLTTDSSTTTAYMELKSLQFDDTAVYYCARRDYRFDMGFDYWGQGTTVTVSSASTKGPSVFPLAPCSRSTSESTAALGCLVKDYFPEPVTVSWNSGALTSGVHTFPAVLQSSGLYSLSSVVTVPSSSLGTKTYTCNVDHKPSNTKVDKRVESKYGPPCPSCPAPEFLGGPSVFLFPPKPKDTLMISRTPEVTCVVVDVSQEDPEVQFNWYVDGVEVHNAKTKPREEQFNSTYRVVSVLTVLHQDWLNGKEYKCKVSNKGLPSSIEKTISKAKGQPREPQVYTLPPSQEEMTKNQVSLTCLVKGFYPSDIAVEWESNGQPENNYKTTPPVLDSDGSFFLYSRLTVDKSRWQEGNVFSCSVMHEALHNHYTQKSLSLSPGKGGGGSGGGGSIPPHVQKSVNNDMIVTDNNGAVKFPQLCKFCDVRFSTCDNQKSCMSNCSITSICEKPQEVCVAVWRKNDENITLETVCHDPKLPYHDFILEDAASPKCIMKEKKKPGETFFMCSCSSDECNDNIIFSEEYNTSNPD
light: EIVLTQSPATLSLSPGERATLSCRASKGVSTSGYSYLHWYQQKPGQAPRLLIYLASYLESGVPARFSGSGSGTDFTLTISSLEPEDFAVYYCQHSRDLPLTFGGGTKVEIKRTVAAPSVFIFPPSDEQLKSGTASVVCLLNNFYPREAKVQWKVDNALQSGNSQESVTEQDSKDSTYSLSSTLTLSKADYEKHKVYACEVTHQGLSSPVTKSFNRGEC

- Kd (TGF-β1 [3]): 5.22 pM
- Kd (TGF-β2): 859 pM
- Kd (TGF-β3): 2.19 pM
B13: Anti-PD-1(VH6-VL5) IgG4-TGFβRII (other)
heavy: QVQLVESGGGVVQPGRSLRLDCKASGITFSNSGMHWVRQAPGKGLEWVAVIWYDGSKRYYADSVKGRFTISRDNSKNTLFLQMNSLRAEDTAVYYCATNDDYWGQGTLVTVSSASTKGPSVFPLAPCSRSTSESTAALGCLVKDYFPEPVTVSWNSGALTSGVHTFPAVLQSSGLYSLSSVVTVPSSSLGTKTYTCNVDHKPSNTKVDKRVESKYGPPCPSCPAPEFLGGPSVFLFPPKPKDTLMISRTPEVTCVVVDVSQEDPEVQFNWYVDGVEVHNAKTKPREEQFNSTYRVVSVLTVLHQDWLNGKEYKCKVSNKGLPSSIEKTISKAKGQPREPQVYTLPPSQEEMTKNQVSLTCLVKGFYPSDIAVEWESNGQPENNYKTTPPVLDSDGSFFLYSRLTVDKSRWQEGNVFSCSVMHEALHNHYTQKSLSLSPGKGGGGSGGGGSIPPHVQKSVNNDMIVTDNNGAVKFPQLCKFCDVRFSTCDNQKSCMSNCSITSICEKPQEVCVAVWRKNDENITLETVCHDPKLPYHDFILEDAASPKCIMKEKKKPGETFFMCSCSSDECNDNIIFSEEYNTSNPD
light: not shown
notes: also called anti-PD-1 IgG4 antibody (VH6-VL5)-TGFβRII fusion protein; VH6-IgG4(wt)-linker-ECD with VL5

— patent publication US20220023420A1 (PRECIGEN, published 2022)
